Measured values reported in patent US20040086863A1 (published 2004).

What was measured:
[1] = molecular target: T1, HA-tagged PH domain of mSos1 (residues 448-577) (mouse, UniProt Q62245 448-577); test: GST pull-down from yeast lysates, anti-HA western blot
T1 construct: range 448-577; Expressed in L40 yeast; The species is read from the printed prefix in 'mSos1'; also called SOS1 PH domain; not shown: HA tag
T1 sequence (looked up): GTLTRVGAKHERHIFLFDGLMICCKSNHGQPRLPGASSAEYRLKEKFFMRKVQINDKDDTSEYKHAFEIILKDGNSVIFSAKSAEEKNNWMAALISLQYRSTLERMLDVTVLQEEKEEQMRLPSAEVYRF

[2] = molecular target: T2, HA-tagged PH domain of human RasGAP (residues 464-603) (human, UniProt P20936 464-603); test: as above
T2 construct: range 464-603; Expressed in L40 yeast; also called Ras-GAP (GAP) PH domain; not shown: HA tag
T2 sequence (looked up): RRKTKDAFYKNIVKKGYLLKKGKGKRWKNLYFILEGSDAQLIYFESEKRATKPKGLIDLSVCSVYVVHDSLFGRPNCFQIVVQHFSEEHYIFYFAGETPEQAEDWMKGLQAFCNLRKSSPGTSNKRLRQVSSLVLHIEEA

[3] = molecular target: T3, HA-tagged PH domain of mouse Ect-2 (residues 495-621) (mouse, UniProt Q07139 670-796); test: as above
T3 construct: range 670-796; Expressed in L40 yeast; also called ECT-2 PH domain; not shown: HA tag
T3 sequence (looked up): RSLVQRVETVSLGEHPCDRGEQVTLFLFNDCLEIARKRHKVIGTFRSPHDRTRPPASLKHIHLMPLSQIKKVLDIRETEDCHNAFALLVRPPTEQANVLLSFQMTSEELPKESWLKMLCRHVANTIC

[4] = molecular target: T4, HA-tagged IRS-1 PH domain mutant PH^W106A (rat, UniProt P35570 3-133); test: GST pull-down from COS-1 lysates (500 µg), anti-HA western blot
T4 construct: range 3-133; Expressed transiently in COS-1 cells; The residue limits are not restated for this mutant; not shown: HA tag
T4 sequence (looked up): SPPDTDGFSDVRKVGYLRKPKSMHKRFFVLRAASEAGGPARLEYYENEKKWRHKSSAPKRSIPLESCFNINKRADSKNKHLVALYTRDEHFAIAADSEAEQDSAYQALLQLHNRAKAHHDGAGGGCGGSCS

- binding result [1]: no binding
- binding result [2]: no binding
- binding result [3]: no binding
- binding result [4]: no binding
B1: GST-PHIP fusion protein containing PHIP residues 8-209 (PBR) isolated from the yeast clone VP1.32 (other)
chain: VGELTENGLTLEEWLPSAWITDTLPRRCPFVPQMGDEVYYFRQGHEAYVEMARKNKIYSINPKKQPWHKMELREQELMKIVGIKYEVGLPTLCCLKLAFLDPDTGKLTGGSFTMKYHDMPDVIDFLVLRQQFDDAKYRRWNIGDRFRSVIDDAWWFGTIESQEPLQPEYPDSLFQCYNVCWDNGDTEKMSPWDMELIPNNAV
notes: Bacterially expressed and immobilized for pull-downs; also called GST-PHIP (PBR); not shown: glutathione S-transferase encoded by the pGEX-3X vector
